Assay results reported in patent publication US20230151091A1 (NEW YORK UNIVERSITY, published 2023).

T1: human MuSK (human, UniProt O15146 24-495)
T1 construct: Recombinant protein coated on ELISA plates (R&D Systems cat. 10189-MK) or on the Biacore chip; also called human muscle-specific tyrosine protein kinase; full length human MuSK
T1 sequence: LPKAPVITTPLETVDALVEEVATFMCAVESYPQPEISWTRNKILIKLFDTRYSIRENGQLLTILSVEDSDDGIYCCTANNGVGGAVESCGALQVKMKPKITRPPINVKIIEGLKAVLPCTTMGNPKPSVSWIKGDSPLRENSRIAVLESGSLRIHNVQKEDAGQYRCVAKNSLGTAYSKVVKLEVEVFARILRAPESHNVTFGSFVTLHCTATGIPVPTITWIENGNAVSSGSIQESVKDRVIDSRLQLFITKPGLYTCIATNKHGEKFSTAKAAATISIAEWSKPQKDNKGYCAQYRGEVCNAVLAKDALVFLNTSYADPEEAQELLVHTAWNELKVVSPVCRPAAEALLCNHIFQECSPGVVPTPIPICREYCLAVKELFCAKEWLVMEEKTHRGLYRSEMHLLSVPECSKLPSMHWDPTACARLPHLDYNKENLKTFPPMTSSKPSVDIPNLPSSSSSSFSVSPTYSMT

T2: mouse MuSK (mouse, UniProt Q61006 22-494, limits assumed)
T2 construct: Coated on ELISA plates or on the Biacore chip; also called full length mouse MuSK; mouse MuSK (in house produced in HEK293 cells)
T2 sequence (looked up): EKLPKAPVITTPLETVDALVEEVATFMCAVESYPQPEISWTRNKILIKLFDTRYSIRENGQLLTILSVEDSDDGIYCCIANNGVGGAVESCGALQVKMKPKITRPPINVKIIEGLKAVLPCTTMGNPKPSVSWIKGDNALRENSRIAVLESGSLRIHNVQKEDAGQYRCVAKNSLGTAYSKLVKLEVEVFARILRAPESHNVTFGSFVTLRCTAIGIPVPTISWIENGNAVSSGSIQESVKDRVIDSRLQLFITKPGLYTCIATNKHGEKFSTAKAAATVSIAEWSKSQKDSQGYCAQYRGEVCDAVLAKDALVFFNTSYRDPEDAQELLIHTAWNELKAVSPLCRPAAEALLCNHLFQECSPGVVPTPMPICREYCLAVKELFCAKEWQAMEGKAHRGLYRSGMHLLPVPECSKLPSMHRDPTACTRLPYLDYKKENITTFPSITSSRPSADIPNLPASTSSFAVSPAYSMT

T3: mouse MuSK, endogenous (C2C12 myotubes; neuromuscular synapses of mice) (mouse, UniProt Q61006 22-868)
T3 sequence (looked up): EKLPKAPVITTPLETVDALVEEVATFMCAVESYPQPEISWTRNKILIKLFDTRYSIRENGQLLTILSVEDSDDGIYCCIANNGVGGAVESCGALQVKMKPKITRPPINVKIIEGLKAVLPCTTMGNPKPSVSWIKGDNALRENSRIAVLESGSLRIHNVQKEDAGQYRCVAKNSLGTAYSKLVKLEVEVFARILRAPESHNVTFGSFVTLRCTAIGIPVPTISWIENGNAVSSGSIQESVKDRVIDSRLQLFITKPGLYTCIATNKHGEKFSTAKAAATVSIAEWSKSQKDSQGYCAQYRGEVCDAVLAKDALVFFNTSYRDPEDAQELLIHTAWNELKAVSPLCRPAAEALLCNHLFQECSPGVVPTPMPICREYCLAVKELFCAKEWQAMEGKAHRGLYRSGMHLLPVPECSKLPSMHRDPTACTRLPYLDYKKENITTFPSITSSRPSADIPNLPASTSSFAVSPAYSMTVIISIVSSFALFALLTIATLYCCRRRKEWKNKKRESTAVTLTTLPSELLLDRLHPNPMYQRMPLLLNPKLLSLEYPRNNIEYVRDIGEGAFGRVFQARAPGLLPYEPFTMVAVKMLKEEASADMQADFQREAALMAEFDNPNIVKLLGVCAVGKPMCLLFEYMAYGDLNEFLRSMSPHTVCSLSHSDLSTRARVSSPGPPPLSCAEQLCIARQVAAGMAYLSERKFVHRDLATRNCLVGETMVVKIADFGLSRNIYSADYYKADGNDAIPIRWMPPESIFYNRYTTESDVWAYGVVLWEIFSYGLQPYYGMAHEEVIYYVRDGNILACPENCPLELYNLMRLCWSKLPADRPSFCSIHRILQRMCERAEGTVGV

T4: hECD: full-length extracellular region of human MuSK (E22 to T495) with C-terminal Avi- and His6-tags (human, UniProt O15146 22-495, biotinylated in vitro using the BirA enzyme)
T4 construct: also called human ECD; not shown: Avi- and His6-tags
T4 sequence: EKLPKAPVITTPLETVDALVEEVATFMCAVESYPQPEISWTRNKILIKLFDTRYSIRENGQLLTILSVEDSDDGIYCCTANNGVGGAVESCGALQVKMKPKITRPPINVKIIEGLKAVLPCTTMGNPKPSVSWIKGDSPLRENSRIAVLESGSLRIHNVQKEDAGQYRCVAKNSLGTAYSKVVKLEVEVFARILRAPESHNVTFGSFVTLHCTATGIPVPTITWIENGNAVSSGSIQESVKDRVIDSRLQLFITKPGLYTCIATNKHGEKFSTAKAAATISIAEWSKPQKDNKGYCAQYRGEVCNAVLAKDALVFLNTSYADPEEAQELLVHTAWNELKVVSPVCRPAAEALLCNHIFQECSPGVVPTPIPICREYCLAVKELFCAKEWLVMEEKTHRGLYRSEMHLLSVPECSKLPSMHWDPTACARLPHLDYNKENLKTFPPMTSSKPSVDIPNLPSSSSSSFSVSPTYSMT

T5: mFz: Fz domain and C-terminal flanking sequence of mouse MuSK (D307 to T494) with C-terminal Avi- and … (mouse, UniProt Q61006 307-494, limits assumed, biotinylated in vitro using the BirA enzyme)
T5 construct: also called mouse Fz; not shown: Avi- and His6-tags
T5 sequence (looked up): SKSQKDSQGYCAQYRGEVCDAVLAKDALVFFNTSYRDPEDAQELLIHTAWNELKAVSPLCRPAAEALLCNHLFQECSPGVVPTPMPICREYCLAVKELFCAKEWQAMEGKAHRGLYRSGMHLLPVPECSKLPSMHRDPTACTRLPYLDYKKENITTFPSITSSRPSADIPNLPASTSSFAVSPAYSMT

T6: hFz: Fz domain and C-terminal flanking sequence of human MuSK (K314-T495) with C-terminal Avi- and His6-tags (human, UniProt O15146 314-495, biotinylated in vitro using the BirA enzyme)
T6 construct: also called human Fz; not shown: Avi- and His6-tags
T6 sequence: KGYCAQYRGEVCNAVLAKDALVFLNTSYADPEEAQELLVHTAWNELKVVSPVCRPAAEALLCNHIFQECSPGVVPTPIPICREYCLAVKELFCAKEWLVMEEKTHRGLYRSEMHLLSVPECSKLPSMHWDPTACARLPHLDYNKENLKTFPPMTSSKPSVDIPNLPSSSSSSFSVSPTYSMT

T7: mECD: full-length extracellular region of mouse MuSK (E22 to T494) with C-terminal Avi- and His6-tags (mouse, UniProt Q61006 22-494, biotinylated in vitro using the BirA enzyme)
T7 construct: range 22-494; also called mouse ECD; not shown: Avi- and His6-tags
T7 sequence (looked up): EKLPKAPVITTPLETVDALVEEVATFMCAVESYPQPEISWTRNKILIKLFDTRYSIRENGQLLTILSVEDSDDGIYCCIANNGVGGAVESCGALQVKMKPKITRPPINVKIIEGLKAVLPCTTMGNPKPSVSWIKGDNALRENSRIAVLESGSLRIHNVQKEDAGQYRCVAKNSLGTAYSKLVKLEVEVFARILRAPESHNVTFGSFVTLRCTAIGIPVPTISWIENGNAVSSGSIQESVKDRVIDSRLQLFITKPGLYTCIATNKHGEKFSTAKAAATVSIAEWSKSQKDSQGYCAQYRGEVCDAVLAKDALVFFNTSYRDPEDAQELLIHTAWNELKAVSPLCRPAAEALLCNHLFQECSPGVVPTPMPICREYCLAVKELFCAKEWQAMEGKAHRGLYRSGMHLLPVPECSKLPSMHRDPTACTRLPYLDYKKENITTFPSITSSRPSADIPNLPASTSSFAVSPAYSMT


Tests used:
human MuSK = molecular target: T1, human MuSK; assay: Biacore, MuSK on chip (200RU), mAb dilution series
Description: (§1) For affinity determination, a CMS chip was coated with either human or mouse MuSK (200RU) and a dilution series of the antibodies (mAbs and Fabs) was applied in order to be able to calculate the affinity.

mouse MuSK [1] = molecular target: T2, mouse MuSK; assay: Biacore, MuSK on chip (200RU), mAb dilution series
Description: as §1

[2] = molecular target: T3, mouse MuSK, endogenous (C2C12 myotubes; …); assay: cell-based or functional assay
mouse MuSK [3] = molecular target: T2, mouse MuSK; assay: Biacore, mAb
Description: as §1

[4] = molecular target: T4, hECD: full-length extracellular region …; assay: bead-binding titration, Fab format: antigen immobilized on streptavidin beads, MFI by flow cytometry, curve is the 1:1 fit
[5] = molecular target: T5, mFz: Fz domain and C-terminal flanking …; assay: as above
[6] = molecular target: T6, hFz: Fz domain and C-terminal flanking …; assay: as above
[7] = molecular target: T7, mECD: full-length extracellular region …; assay: as above
[8] = molecular target: T4, hECD: full-length extracellular region …; assay: bead-binding assay, Fab format: biotinylated antigen on streptavidin beads, flow cytometry, 1:1 fit; average ± s.d., n=3
[9] = molecular target: T5, mFz: Fz domain and C-terminal flanking …; assay: as above
[10] = molecular target: T6, hFz: Fz domain and C-terminal flanking …; assay: as above
[11] = molecular target: T7, mECD: full-length extracellular region …; assay: as above

Row | Binder | Kd (human MuSK) [nM] | Kd (mouse MuSK [1]) [nM] | % Phosphorylation Induced in C2C12 Mouse Assay, Assay 1 [2] [% versus agrin] | % Phosphorylation Induced in C2C12 Mouse Assay, Assay 2 [2] [% versus agrin] | % Phosphorylation Induced in C2C12 Mouse Assay, Assay 3 [2] [% versus agrin] | % Phosphorylation Induced in C2C12 Mouse Assay, Average [2] [% versus agrin] | fold difference in affinity, human versus mouse MuSK (mouse MuSK [3]) [fold] | EC50 (read off the curve) [4] [nM] | EC50 (read off the curve) [5] [nM] | EC50 (read off the curve) [6] [nM] | EC50 (read off the curve) [7] [nM] | Kd [8] [nM] | Kd [9] [nM] | Kd [10] [nM] | Kd [11] [nM]
1 | 30E1 (antibody, V domains shown, human IgG1 with the LALA mutations (L234A, L235A); produced in HEK293 cells; also called 30E1 mAb) VH: QVQVQESGPGLVKPSQTLSLTCTVSGGSITARYYSWSWIRQPPGKGLEWMGVIAYDGSTYYSPSLKSRTSISRDTSKNQFSLHLSSVTPDDTAVYYCARGSSRVAAAFDSWGQGTQVTVSS VL: SYELTQSPSVSVALRRTAKITCGGDNIGSKNTQWYQQKPGQAPVLVIYADSRRPSGIPERFSGSNSGNTATLTISGAQAEDEADYYCHVWDSSTNAWFGGGTHLTVL | 0.011 | 0.153 | 66 | 82 | 50 | 66 | 10 | – | – | – | – | – | – | – | –
2 | 30A11 (antibody, V domains shown, human IgG1 with the LALA mutations (L234A, L235A); produced in HEK293 cells; also called 30A11 mAb) VH: QVQVQESGPGLVKPSQTLSLTCTVSGGSITARYYSWSWIRQPPGKGLEWMGVIAYDGSTYYSPSLKSRTSISRDTSKNQFSLHLSSVTPDDTAVYYCARGSSRVAAAFDSWGQGTQVTVSS VL: SYELTQSPSVTVALRQTAKITCGGDNIASKNVQWYQQKPGQAPSLVIWADSRRPSGIPVRFSGSNFGNTATLTISGAQAEDEADYYCQVWDSSTNVAVFGGGTHLTVL | 0.001 | 0.11 | 73 | 89 | 74 | 79 | 100 | – | – | – | – | – | – | – | –
3 | X13 Fab (Fab, V domains shown, also called Fab Clone X13) VH: EVQLVESGGGLVQPGGSLRLSCAASGFTISSSSIHWVRQAPGKGLEWVASISSSSGSTSYADSVKGRFTISADTSKNTAYLQMNSLRAEDTAVYYCARSSEHWYTIGYYGIDYWGQGTLVTVSS VL: DIQMTQSPSSLSASVGDRVTITCRASQSVSSAVAWYQQKPGKAPKLLIYSASSLYSGVPSRFSGSRSGTDFTLTISSLQPEDFATYYCQQSYGSFSLITFGQGTKVEIK | – | – | – | – | – | – | – | ~2 | ~2 | ~2 | ~2 | 2.39 | 1.56 | 1.7 | 2.41
4 | X6 Fab (Fab, V domains shown, also called Fab Clone X6) VH: EVQLVESGGGLVQPGGSLRLSCAASGFTFSSSSIHWVRQAPGKGLEWVASISSYSGYTYYADSVKGRFTISADTSKNTAYLQMNSLRAEDTAVYYCARTYGSYYVSSYTGMDYWGQGTLVTVSS VL: DIQMTQSPSSLSASVGDRVTITCRASQSVSSAVAWYQQKPGKAPKLLIYSASSLYSGVPSRFSGSRSGTDFTLTISSLQPEDFATYYCQQSSSSLITFGQGTKVEIK | – | – | – | – | – | – | – | ~1 | ~0.4 | ~1 | ~0.6 | 1.47 | 0.42 | 0.9 | 0.59
